Experimental data as given in article PMC6453779, “The Different Effects of Substrates and Nucleotides on the Complex Formation of ABC Transporters” (Structure(London, England:1993), 2019).
Blank lines part the entries; values can stand above or below the molecule they belong to.

What was measured:
BtuCD-F = target: T1, BtuCD-F (Escherichia coli, UniProt P06611); assay: native mass spectrometry; format: binding; settings: then BtuF, C8E4
T1 construct: gene btuD; BtuC2D2-F complex; BtuCD from pET19b-BtuCD in E. coli BL21(DE3), LDAO purified, MS in C8E4; BtuF residues 23-266; theoretical mass 158,253 Da; with Vitamin B12 import system permease protein BtuC
T1 sequence (P06611 1-249): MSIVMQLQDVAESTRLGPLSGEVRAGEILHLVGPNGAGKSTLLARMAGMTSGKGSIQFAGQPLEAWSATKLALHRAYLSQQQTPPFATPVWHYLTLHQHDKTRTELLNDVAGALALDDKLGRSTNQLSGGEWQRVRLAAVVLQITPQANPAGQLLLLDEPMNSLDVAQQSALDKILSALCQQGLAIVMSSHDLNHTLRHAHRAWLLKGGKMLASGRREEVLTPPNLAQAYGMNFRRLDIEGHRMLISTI
T1 sequence (P06609 1-326 partner): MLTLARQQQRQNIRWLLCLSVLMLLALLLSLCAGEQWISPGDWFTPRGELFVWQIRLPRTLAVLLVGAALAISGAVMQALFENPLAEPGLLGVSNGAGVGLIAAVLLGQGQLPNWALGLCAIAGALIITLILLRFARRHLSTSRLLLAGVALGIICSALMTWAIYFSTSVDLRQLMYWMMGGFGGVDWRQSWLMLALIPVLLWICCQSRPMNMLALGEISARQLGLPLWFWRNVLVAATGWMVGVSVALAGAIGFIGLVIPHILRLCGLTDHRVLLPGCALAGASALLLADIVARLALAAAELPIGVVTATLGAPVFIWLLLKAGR
T1 sequence (P37028 23-266 partner): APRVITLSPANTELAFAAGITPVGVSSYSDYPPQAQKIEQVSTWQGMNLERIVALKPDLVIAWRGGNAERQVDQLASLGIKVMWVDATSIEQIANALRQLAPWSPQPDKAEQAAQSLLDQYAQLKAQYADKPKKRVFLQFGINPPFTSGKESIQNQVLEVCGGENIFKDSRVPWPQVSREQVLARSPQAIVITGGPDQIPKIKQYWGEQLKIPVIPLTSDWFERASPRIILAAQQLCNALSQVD

BtuCD = target: T2, BtuCD (Escherichia coli, UniProt P06611); assay: native mass spectrometry; format: binding; settings: free BtuCD population beside BtuCD-F, C8E4
T2 construct: gene btuD; BtuC2D2 tetramer without BtuF; pET19b-BtuCD in E. coli BL21(DE3), LDAO purified, MS in C8E4; theoretical mass 128,839 Da; with Vitamin B12 import system permease protein BtuC
T2 sequence (P06611 1-249): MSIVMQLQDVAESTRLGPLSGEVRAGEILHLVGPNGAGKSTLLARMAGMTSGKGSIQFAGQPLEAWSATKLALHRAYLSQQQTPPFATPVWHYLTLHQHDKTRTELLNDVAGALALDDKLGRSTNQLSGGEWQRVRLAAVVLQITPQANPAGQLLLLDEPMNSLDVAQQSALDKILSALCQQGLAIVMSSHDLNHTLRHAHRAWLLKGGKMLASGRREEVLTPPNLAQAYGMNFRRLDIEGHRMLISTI
T2 sequence (P06609 1-326 partner): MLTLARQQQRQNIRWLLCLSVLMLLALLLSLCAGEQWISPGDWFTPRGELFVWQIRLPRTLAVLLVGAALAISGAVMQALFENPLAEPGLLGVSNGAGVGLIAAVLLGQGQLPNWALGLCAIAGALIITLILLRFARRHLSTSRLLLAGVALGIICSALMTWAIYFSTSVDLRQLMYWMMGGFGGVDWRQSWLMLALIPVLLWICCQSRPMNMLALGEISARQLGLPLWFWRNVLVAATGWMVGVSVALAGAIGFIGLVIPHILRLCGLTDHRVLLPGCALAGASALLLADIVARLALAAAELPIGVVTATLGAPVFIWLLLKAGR

[1] = target: T3, ModBC-A⋅MoO4^2− (nucleotide row) (Archaeoglobus fulgidus, UniProt O30144); assay: native mass spectrometry; format: binding; settings: 10 uM ATP and MgCl2 added to ModBC, ModA preloaded with molybdate; one and two ADP bound; C8E4
T3 construct: gene wtpC; nucleotide site on the NBDs (ModC); with Molybdate/tungstate transport system permease protein WtpB
T3 sequence (O30142 32-342 partner, one chain of several): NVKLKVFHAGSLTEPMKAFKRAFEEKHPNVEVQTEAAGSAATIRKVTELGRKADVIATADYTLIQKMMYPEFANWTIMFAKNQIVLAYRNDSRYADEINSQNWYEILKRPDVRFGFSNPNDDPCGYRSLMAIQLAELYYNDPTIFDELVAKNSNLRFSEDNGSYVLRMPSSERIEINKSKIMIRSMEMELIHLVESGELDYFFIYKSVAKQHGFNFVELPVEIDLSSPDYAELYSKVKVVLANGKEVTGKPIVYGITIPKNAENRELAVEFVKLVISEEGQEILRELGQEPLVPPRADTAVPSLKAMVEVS

[2] = target: T4, BtuC, transmembrane subunit of BtuCD of Escherichia coli (E. coli, UniProt P06609 1-326); assay: native MS; co-expressed and co-purified transporter alone, buffer exchanged into 200 mM ammonium acetate with 0.5% C8E4; settings: both partners purified
T4 construct: BtuC, transmembrane subunit of the vitamin B12 importer BtuCD, E. coli; construct pET19b-BtuCD; source: E. coli BL21(DE3), co-purified as BtuCD from membranes (LDAO, HisTrap, SEC)
T4 sequence: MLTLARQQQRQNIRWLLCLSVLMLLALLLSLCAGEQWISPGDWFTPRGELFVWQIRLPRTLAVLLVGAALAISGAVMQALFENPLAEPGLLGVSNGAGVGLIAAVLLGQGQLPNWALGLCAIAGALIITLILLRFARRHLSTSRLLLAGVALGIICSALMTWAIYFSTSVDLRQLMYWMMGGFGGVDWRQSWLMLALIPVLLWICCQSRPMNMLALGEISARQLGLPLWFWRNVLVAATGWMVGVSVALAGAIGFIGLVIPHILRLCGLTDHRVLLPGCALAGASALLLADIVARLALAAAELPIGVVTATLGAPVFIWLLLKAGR

[3] = target: T5, vitamin B12 transporter BtuCD (BtuC2D2) of Escherichia coli (E. coli, UniProt P06609 1-326; P06611 1-249); assay: native MS; BtuF and BtuCD incubated in a 1:2 molar ratio (BtuF:BtuCD) in 200 mM ammonium acetate with 0.5% C8E4; without ligand, or with 2 mM vitamin B12, dicyanocobinamide or vitamin B9 added to BtuF before buffer exchange, or 5 mM ATP/MgCl2 or 5 mM AMP-PNP added to BtuCD before buffer exchange, or vitamin B12 and ATP together; settings: both partners purified
T5 construct: BtuC, transmembrane subunit of the vitamin B12 importer BtuCD, E. coli; construct pET19b-BtuCD, gift from Kaspar Locher; Purified on a HisTrap column from pET19b-BtuCD; also called tetrameric transporter; source: E. coli BL21(DE3), purified from membranes (LDAO, HisTrap, Superdex 200 SEC); copies: 2 + 2
T5 sequence 1: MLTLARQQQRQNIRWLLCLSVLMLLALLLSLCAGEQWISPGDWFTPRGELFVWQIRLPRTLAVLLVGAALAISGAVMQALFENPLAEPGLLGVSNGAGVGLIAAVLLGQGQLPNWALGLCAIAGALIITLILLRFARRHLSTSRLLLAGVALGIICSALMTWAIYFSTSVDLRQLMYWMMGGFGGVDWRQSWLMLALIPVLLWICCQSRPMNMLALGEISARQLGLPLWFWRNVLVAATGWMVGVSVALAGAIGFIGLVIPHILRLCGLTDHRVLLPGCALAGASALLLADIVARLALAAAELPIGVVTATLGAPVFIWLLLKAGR
T5 sequence 2: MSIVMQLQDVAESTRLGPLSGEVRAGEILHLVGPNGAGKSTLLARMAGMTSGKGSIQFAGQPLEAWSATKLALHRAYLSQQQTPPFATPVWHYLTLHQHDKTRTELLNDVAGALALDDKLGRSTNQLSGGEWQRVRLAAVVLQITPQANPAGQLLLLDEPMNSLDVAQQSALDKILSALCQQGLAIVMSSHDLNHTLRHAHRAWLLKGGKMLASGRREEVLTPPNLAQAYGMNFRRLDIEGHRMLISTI

[4] = target: T6, ModB, transmembrane subunit of ModBC of Archaeoglobus fulgidus (A. fulgidus, UniProt O30143 1-261); assay: native MS; co-expressed and co-purified transporter alone, buffer exchanged into 200 mM ammonium acetate with 0.5% C8E4; settings: both partners purified
T6 construct: ModB, transmembrane subunit of the molybdate importer ModBC, A. fulgidus; construct pET19b-ModBC; source: E. coli BL21(DE3), co-purified as ModBC from membranes (DDM and C12E8, HisTrap, SEC)
T6 sequence: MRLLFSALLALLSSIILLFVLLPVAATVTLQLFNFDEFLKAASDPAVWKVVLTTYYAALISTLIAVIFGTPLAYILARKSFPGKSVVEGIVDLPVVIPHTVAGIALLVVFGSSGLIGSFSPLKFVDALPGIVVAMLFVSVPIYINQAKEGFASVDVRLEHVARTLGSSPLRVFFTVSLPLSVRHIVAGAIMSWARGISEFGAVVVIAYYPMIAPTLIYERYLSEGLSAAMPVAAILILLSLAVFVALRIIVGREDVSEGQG

Molecule: Nc1ncnc2c1ncn2[C@@H]1O[C@H](COP(=O)(O)OP(=O)(O)O)[C@@H](O)[C@H]1O [ADP]
observed mass of complex (BtuCD-F; 5 mM ATP and 5 mM MgCl2 added to BtuCD before buffer exchange, one and two ADP bound): two nucleotide-bound states with one and two ADP molecules bound
bound species by mass (BtuCD; 5 mM ATP and 5 mM MgCl2 added before buffer exchange): The presence of ADP-bound species of both BtuCD-F and BtuCD are observed
observed mass of complex [1]: an apo form and the species bound to one and two ADP molecules

Molecule: Nc1ncnc2c1ncn2[C@@H]1O[C@H](COP(=O)(O)OP(=O)(O)NP(=O)(O)O)[C@@H](O)[C@H]1O [AMP-PNP, Adenosine 5’-(β,γ-imido)triphosphate]
observed mass of complex (BtuCD-F; 5 mM AMP-PNP added to BtuCD before buffer exchange, two bound): apo-BtuCD-F as well as a population assigned to BtuCD-F⋅2AMP-PNP
bound species by mass (BtuCD; 5 mM AMP-PNP added before buffer exchange): BtuCD was bound to the two different nucleotides in a similar fashion

binding result [2]: binds
B1: BtuD, nucleotide binding subunit of BtuCD of Escherichia coli (natural protein, E. coli)
chain: MSIVMQLQDVAESTRLGPLSGEVRAGEILHLVGPNGAGKSTLLARMAGMTSGKGSIQFAGQPLEAWSATKLALHRAYLSQQQTPPFATPVWHYLTLHQHDKTRTELLNDVAGALALDDKLGRSTNQLSGGEWQRVRLAAVVLQITPQANPAGQLLLLDEPMNSLDVAQQSALDKILSALCQQGLAIVMSSHDLNHTLRHAHRAWLLKGGKMLASGRREEVLTPPNLAQAYGMNFRRLDIEGHRMLISTI
notes: construct pET19b-BtuCD; source: E. coli BL21(DE3), co-purified as BtuCD from membranes (LDAO, HisTrap, SEC)

uncomplexed BtuCD relative to BtuCD-F (100%), with dicyanocobinamide [3]: 44%
uncomplexed BtuCD relative to BtuCD-F (100%), with vitamin B9 [3]: 15%
uncomplexed BtuCD relative to BtuCD-F (100%), with vitamin B12 [3]: 45%
uncomplexed BtuCD relative to BtuCD-F, no substrate [3]: 10%
uncomplexed BtuCD relative to BtuCD-F, with AMP-PNP [3]: 43%
uncomplexed BtuCD relative to BtuCD-F, with ATP [3]: 40%
B2: periplasmic vitamin B12 substrate-binding protein BtuF of Escherichia coli (aa 23-266) (natural protein, E. coli, UniProt P37028 23-266, looked up)
chain: APRVITLSPANTELAFAAGITPVGVSSYSDYPPQAQKIEQVSTWQGMNLERIVALKPDLVIAWRGGNAERQVDQLASLGIKVMWVDATSIEQIANALRQLAPWSPQPDKAEQAAQSLLDQYAQLKAQYADKPKKRVFLQFGINPPFTSGKESIQNQVLEVCGGENIFKDSRVPWPQVSREQVLARSPQAIVITGGPDQIPKIKQYWGEQLKIPVIPLTSDWFERASPRIILAAQQLCNALSQVD
notes: also called SBP; source: E. coli BL21(DE3), purified (HisTrap, SEC; same protocol as ModA, final buffer with 10 mM DTT)

binding result [4]: binds
B3: ModC, nucleotide binding subunit of ModBC of Archaeoglobus fulgidus (natural protein, A. fulgidus)
chain: MFLKVRAEKRLGNFRLNVDFEMGRDYCVLLGPTGAGKSVFLELIAGIVKPDRGEVRLNGADITPLPPERRGIGFVPQDYALFPHLSVYRNIAYGLRNVERVERDRRVREMAEKLGIAHLLDRKPARLSGGERQRVALARALVIQPRLLLLDEPLSAVDLKTKGVLMEELRFVQREFDVPILHVTHDLIEAAMLADEVAVMLNGRIVEKGKLKELFSAKNGEVAEFLSARNLLLKVSKILD
notes: construct pET19b-ModBC; source: E. coli BL21(DE3), co-purified as ModBC from membranes (DDM and C12E8, HisTrap, SEC)
